Series [1] deals with anti-ras lead zinc finger peptide (3 fingers) (Artificial Sequence). The experiment in a line: apparent Kd; phage binding. The following applies: protein: virion; label: biotin.
Series [2] has as its target optimised anti-ras zinc finger peptide (Asn at helix +3 of finger 1) (Artificial Sequence, S21N (finger 1 helix position +3 Ser to Asn; numbering of SEQ 14)). Kind of series: apparent Kd; phage binding. To be noted: protein: virion; label: biotin.

Chain of anti-ras lead zinc finger peptide (3 fingers) (Artificial Sequence) (chain, as listed by the source): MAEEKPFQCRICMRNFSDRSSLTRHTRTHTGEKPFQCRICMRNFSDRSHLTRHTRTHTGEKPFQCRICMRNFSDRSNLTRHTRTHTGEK
Chain of optimised anti-ras zinc finger peptide (Asn at helix +3 of finger 1) (Artificial Sequence, S21N (finger 1 helix position +3 Ser to Asn; numbering of SEQ 14)) (chain, as listed by the source with the stated changes): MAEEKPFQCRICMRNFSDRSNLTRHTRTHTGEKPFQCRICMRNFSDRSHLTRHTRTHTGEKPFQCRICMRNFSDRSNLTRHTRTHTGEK

B1: EJ mutant (G12V) H-ras DNA, codons 8-16 (dsDNA)
DNA 1: GTGGTGGGCGCCGTCGGTGTGGGCAAG
DNA 2: CTTGCCCACACCGACGGCGCCCACCAC
As to B1, the figures for the Kd in series [1] and in series [2] were 17 nM and 3 nM, respectively.

These data come from patent US20040253623, “Nucleic acid binding proteins” (Gendaq Limited, published 2004).
